The values that follow come from article PMC3665890.

For this experiment, the target named is FITC-conjugated Mouse transferrin (UniProt Q921I1). The experiment is described as follows: flow cytometry on cells. The settings on record: read off a plot. In general terms: In flow cytometry, cells or beads pass a laser one at a time.
Sequence of UniProt Q921I1 (Q921I1 whole entry, looked up): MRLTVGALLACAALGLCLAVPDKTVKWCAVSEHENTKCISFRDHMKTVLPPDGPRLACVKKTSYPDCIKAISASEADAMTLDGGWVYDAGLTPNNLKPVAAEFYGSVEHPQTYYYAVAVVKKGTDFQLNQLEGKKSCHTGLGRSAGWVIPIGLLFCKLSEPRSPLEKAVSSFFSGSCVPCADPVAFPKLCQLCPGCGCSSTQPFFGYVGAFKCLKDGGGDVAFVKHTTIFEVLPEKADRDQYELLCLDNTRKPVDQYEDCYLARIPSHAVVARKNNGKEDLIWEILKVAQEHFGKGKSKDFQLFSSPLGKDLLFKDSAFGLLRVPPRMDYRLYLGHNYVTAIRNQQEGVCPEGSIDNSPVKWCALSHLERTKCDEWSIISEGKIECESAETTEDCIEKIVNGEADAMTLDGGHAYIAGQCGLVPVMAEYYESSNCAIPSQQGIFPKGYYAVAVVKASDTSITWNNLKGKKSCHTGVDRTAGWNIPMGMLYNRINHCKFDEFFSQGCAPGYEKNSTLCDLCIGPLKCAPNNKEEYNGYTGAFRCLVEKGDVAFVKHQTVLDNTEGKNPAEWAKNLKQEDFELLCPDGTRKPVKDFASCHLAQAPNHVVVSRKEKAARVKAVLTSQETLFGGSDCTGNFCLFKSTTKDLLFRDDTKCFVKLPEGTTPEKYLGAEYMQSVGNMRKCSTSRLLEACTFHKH

Regarding “house mouse (Mus musculus) TfR1, wild type, C-terminal FLAG (from UniProt Q62351) A296S; R569I; A575L”, the response (parent: est. 1100) stood at 910 m.f.i.

Regarding “zygodont (Zygodontomys brevicauda) TfR1, wild type, C-terminal FLAG S296A; N569R; S575A”, where the note is “MDCK cells stably expressing TfR1-FLAG, incubated with media containing FITC-labeled iron-loaded mouse transferrin, three replicates, parent: est. 580”, the response was 590 m.f.i.
